Data on six molecules can be found in article PMC4921775, “Transient Fcho1/2⋅Eps15/R⋅AP-2 Nanoclusters Prime the AP-2 Clathrin Adaptor for Cargo Binding” (Developmental Cell, 2016).

A word on the Kd: it is the concentration at which binding is half-saturated.

The target in test [1] is AP-2 α-appendage appendage (UniProt P17426). To be noted: cited from earlier work.
Test [2] has as its target T1, Danio rerio (Dr) Fcho1 μHD (Danio rerio (zebrafish)).
T1 chain: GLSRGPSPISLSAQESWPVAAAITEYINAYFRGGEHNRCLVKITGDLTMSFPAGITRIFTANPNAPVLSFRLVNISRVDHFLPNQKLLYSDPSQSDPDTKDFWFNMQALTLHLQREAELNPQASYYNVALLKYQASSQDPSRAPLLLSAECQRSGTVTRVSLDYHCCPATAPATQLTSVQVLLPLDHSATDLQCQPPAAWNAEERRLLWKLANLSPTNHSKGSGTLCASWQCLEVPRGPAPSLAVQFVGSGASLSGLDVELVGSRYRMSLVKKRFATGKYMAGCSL
The test can be described thus: ITC. A general note: Isothermal titration calorimetry measures the heat released or taken up as one component is titrated into another.

In the next test the target is T2, FCHO1 μHD S732D (Homo sapiens).
T2 chain: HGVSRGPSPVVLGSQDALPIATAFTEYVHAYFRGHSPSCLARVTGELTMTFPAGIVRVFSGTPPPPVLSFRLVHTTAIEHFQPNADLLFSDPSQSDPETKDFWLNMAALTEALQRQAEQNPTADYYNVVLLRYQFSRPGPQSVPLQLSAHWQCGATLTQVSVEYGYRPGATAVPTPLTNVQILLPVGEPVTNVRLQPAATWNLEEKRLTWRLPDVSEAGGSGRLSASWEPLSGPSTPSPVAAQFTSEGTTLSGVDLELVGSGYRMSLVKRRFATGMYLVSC
Description: ITC.

The target in another test is T3, FCHO1 μHD R872M (Homo sapiens).
T3 chain: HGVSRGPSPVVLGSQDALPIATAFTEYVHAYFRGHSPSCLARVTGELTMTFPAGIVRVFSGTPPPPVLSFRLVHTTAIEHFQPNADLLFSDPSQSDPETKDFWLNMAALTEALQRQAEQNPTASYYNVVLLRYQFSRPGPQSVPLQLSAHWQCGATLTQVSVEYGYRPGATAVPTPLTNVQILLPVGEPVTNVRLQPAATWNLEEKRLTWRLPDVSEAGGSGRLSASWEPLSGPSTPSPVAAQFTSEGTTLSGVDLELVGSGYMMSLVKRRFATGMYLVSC
The test can be described thus: ITC.

The target in test [3] is T4, FCHO1 μHD A629E (for ITC) (human, UniProt O14526 609-889, A629E).
T4 sequence (looked up): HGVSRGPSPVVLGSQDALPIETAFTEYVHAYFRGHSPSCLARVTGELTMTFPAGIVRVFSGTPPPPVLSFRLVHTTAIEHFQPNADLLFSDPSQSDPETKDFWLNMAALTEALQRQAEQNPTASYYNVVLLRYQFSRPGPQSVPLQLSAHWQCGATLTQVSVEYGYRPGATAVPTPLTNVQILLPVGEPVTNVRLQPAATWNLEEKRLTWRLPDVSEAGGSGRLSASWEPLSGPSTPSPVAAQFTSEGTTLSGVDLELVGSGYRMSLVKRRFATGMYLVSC
The test can be described thus: ITC; repeated injection of EPS15 peptides into a temperature-controlled solution of μHD, Nano ITC instrument (TA Instruments); minimum of four runs. To be noted: both partners purified.

The target in test [4] is T5, FCHO1 μHD K877E + R879A (for ITC) (human, UniProt O14526 609-889, K877E | R879A).
T5 sequence (looked up): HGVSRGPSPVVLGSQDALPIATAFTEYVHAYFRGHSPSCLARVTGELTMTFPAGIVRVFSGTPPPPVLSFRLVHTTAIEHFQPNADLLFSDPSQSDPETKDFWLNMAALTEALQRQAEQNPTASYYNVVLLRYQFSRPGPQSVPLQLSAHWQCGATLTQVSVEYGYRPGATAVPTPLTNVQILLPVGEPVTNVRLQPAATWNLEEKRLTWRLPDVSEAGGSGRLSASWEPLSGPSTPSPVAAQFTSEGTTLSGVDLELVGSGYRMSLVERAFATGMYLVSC
Described as above. Particulars: both partners purified.

Test [5] addresses T6, FCHO1 μHD P627D + A629E (for ITC) (human, UniProt O14526 609-889, P627D | A629E).
T6 sequence (looked up): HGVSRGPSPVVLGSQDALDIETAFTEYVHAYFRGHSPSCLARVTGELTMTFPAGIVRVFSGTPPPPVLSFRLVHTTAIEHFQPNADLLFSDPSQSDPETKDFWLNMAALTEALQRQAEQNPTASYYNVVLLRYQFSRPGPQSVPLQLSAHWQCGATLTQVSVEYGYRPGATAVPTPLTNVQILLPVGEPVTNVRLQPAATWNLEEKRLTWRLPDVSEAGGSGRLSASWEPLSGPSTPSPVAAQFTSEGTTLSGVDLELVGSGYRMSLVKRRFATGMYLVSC
Described as above. To be noted: both partners purified.

Test [6] addresses T7, FCHO1 μHD (purified, not on beads) (human, UniProt O14526 609-889).
T7 construct: human FCHO1 μ-homology domain (μHD); also called purified FCHO1 μHD; Hs FCHO1 μHD; source: purified
T7 sequence (looked up): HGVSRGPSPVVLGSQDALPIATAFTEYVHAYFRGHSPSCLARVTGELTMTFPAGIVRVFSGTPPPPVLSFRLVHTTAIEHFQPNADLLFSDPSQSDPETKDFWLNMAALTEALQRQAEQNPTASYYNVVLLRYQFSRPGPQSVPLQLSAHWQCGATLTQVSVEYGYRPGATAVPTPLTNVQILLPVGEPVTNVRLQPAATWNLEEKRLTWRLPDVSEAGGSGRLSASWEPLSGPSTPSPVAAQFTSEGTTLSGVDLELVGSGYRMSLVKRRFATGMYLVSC
Described as above. Particulars: both partners purified.

Test [7] addresses T7, FCHO1 μHD (purified, not on beads). Description: pull-down; purified FCHO1 μHD with ~50 μg of GST or GST fusion protein in the presence of carrier BSA; stained or immunoblotted with an anti-FCHO1 monoclonal antibody; Figure 1D. To be noted: both partners purified.
The target of a further test is T8, FCHO1 μHD R872A+S874G (Homo sapiens).
T8 chain: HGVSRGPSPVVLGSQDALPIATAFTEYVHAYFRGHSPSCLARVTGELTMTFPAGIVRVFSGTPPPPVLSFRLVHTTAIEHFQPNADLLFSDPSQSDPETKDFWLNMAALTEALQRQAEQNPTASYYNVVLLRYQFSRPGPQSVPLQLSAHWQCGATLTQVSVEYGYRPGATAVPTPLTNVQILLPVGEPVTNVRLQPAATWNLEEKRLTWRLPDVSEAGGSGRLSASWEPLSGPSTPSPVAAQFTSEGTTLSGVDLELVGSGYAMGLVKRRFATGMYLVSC
Description: ITC.

Test [8] concerns the target T9, GST-FCHO1 μHD K877E + R879A (human, UniProt O14526 609-889, K877E | R879A).
T9 construct: also called K877E + R879A mutant; source: GST-fusion protein immobilised on glutathione-Sepharose; not shown: GST, N-terminal, kept
T9 sequence (looked up): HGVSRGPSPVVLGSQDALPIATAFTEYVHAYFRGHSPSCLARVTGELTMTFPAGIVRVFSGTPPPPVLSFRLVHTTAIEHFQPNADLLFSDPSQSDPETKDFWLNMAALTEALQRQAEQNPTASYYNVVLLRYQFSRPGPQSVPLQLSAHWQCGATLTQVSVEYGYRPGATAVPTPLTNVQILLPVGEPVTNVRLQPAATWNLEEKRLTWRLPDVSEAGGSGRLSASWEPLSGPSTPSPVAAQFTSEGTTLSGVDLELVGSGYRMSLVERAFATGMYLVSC
Description: pull-down; HeLa cell lysate with 250 μg (Figure 3F: the indicated amount) of GST or GST-μHD fusion proteins immobilised on glutathione-Sepharose; supernatant and pellet stained or immunoblotted; Figures 1G, 3E, 3F. Particulars: one partner purified. In general terms: Immunoblotting shows a protein as a band on a membrane.

No end group written: not given here.

Chain of AP-2 α-appendage appendage (P17426 740-977): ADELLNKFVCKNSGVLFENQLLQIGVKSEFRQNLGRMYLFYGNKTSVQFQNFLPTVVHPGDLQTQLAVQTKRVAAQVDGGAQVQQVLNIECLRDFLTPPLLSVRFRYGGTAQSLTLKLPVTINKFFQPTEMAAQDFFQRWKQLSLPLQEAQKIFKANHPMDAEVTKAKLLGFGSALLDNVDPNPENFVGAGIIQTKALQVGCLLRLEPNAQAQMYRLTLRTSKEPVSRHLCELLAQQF

For the molecule Eps15 DPF motif (from UniProt P42566), the Kd in [1] is 200 µM.

B1: EPS15 616–638 peptide (peptide)
peptide: NLDFFQSDPFVGSDPFKDDPFGK
Take B1: the Kd in test [2] is 8.1 µM; with FCHO1 μHD S732D, 9.1 µM; with FCHO1 μHD R872M, 19.6 µM.

B2: EPS15 616–638 peptide (peptide, UniProt P42566 616-638, looked up)
peptide: NLDFFQSDPFVGSDPFKDDPFGK
On to B2, for which the Kd in test [3] is over 300 µM; in [4], over 300 µM; in [5], over 300 µM; in [6], 2.7 µM.

B3: GST-EPS15 (615–636) (peptide)
chain: {GST}-TNLDFFQSDPFVGSDPFKDDPF
notes: source: GST-fusion protein immobilised on glutathione-Sepharose; not shown: GST, N-terminal, kept
With B3, the binding result in [7] is reported as “binds”.

B4: EPS15 616–638 peptide (peptide)
chain: NLDFFQSDPFVGSDPFKDDPFGK
The molecule B4 returned a Kd in the test with FCHO1 μHD R872A+S874G of 77.4 µM.

B5: EPS15 (epidermal growth factor pathway substrate 15) (natural protein, human (endogenous in HeLa), UniProt P42566 1-896, looked up)
chain: MAAAAQLSLTQLSSGNPVYEKYYRQVDTGNTGRVLASDAAAFLKKSGLPDLILGKIWDLADTDGKGILNKQEFFVALRLVACAQNGLEVSLSSLNLAVPPPRFHDTSSPLLISGTSAAELPWAVKPEDKAKYDAIFDSLSPVNGFLSGDKVKPVLLNSKLPVDILGRVWELSDIDHDGMLDRDEFAVAMFLVYCALEKEPVPMSLPPALVPPSKRKTWVVSPAEKAKYDEIFLKTDKDMDGFVSGLEVREIFLKTGLPSTLLAHIWSLCDTKDCGKLSKDQFALAFHLISQKLIKGIDPPHVLTPEMIPPSDRASLQKNIIGSSPVADFSAIKELDTLNNEIVDLQREKNNVEQDLKEKEDTIKQRTSEVQDLQDEVQRENTNLQKLQAQKQQVQELLDELDEQKAQLEEQLKEVRKKCAEEAQLISSLKAELTSQESQISTYEEELAKAREELSRLQQETAELEESVESGKAQLEPLQQHLQDSQQEISSMQMKLMEMKDLENHNSQLNWCSSPHSILVNGATDYCSLSTSSSETANLNEHVEGQSNLESEPIHQESPARSSPELLPSGVTDENEVTTAVTEKVCSELDNNRHSKEEDPFNVDSSSLTGPVADTNLDFFQSDPFVGSDPFKDDPFGKIDPFGGDPFKGSDPFASDCFFRQSTDPFATSSTDPFSAANNSSITSVETLKHNDPFAPGGTVVAASDSATDPFASVFGNESFGGGFADFSTLSKVNNEDPFRSATSSSVSNVVITKNVFEETSVKSEDEPPALPPKIGTPTRPCPLPPGKRSINKLDSPDPFKLNDPFQPFPGNDSPKEKDPEIFCDPFTSATTTTNKEADPSNFANFSAYPSEEDMIEWAKRESEREEEQRLARLNQQEQEDLELAIALSKSEISEA
notes: human EPS15, endogenous protein; also called native EPS15 dimer/tetramer
Consider B5, for which the “fold reduction of recovery against the wild-type μHD” value in [8] is at least 25 fold.
